Literature values in PMC10979101.

Biological target: Gab2 503-524 (Homo sapiens) (UniProt Q9UQC2)
Chain of UniProt Q9UQC2 (Q9UQC2 503-524): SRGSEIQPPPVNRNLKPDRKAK

Kd: 1700 nM
Substance: Grb2 C-SH3 C-SH3 (from UniProt P62993)
